Here are results for one molecule from article PMC5587394 (Structure (London, England : 1993), 2017).

This test deals with FGF9^WT (human FGF9, residues 35-208) (human, UniProt P31371 35-208). The test can be described thus: SPR.

B1: FGFR1c^ecto/WT (human FGFR1c ectodomain, residues 141-365) (domain or fragment)
chain: TDNTKPNRMPVAPYWTSPEKMEKKLHAVPAAKTVKFKCPSSGTPNPTLRWLKNGKEFKPDHRIGGYKVRYATWSIIMDSVVPSDKGNYTCIVENEYGSINHTYQLDVVERSPHRPILQAGLPANKTVALGSNVEFMCKVYSDPQPHIQWLKHIEVNGSKIGPDNLPYVQILKTAGVNTTDKEMEVLHLRNVSFEDAGEYTCLAGNSIGLSHHSAWLTVLEALEER
For B1, the binding result is “binds”.
